Experiments:
HeLa Kyoto [1] = assay: thermal stability score vs G1/S (z-score of summed log2 fold changes over temperatures); higher = more thermally stable than in G1/S
HeLa Kyoto [2] = assay: melting temperature (median over replicates), in situ; higher = more thermally stable
[3] = cell cycle stage: early G1 (4.5 h after nocodazole release)
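Wherever melting temperature (median over replicates), in situ is given: HeLa Kyoto cells synchronized by double thymidine or nocodazole block, proteins quantified by TMT10plex mass spectrometry, three independent biological replicates.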
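Wherever thermal stability score vs G1/S (z-score of summed log2 fold changes over temperatures) is given: synchronized HeLa Kyoto cells, proteins quantified by TMT10plex mass spectrometry, three biological replicates, mitosis taken 0.5 h after nocodazole release, G1/S directly after double thymidine block.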

Sequence | thermal stability score (HeLa Kyoto [1]; [3]) | thermal stability score (HeLa Kyoto [1]; cell cycle stage: mitosis) | melting temperature (HeLa Kyoto [2]; cell cycle stage: G1/S) [°C] | melting temperature (HeLa Kyoto [2]; cell cycle stage: mitosis) [°C]
MEHFDASLSTYFKALLGPRDTRVKGWFLLDNYIPTFICSVIYLLIVWLGPKYMRNKQPFSCRGILVVYNLGLTLLSLYMFCELVTGVWEGKYNFFCQGTRTAGESDMKIIRVLWWYYFSKLIEFMDTFFFILRKNNHQITVLHVYHHASMLNIWWFVMNWVPCGHSYFGATLNSFIHVLMYSYYGLSSVPSMRPYLWWKKYITQGQLLQFVLTIIQTSCGVIWPCTFPLGWLYFQIGYMISLIALFTNFYIQTYNKKGASRRKDHLKDHQNGSMAAVNGHTNSFSPLENNVKPRKLRKD [ELOVL5] | -0.682 | -0.967 | 53.3 | 53.7
MVPGAAGWCCLVLWLPACVAAHGFRIHDYLYFQVLSPGDIRYIFTATPAKDFGGIFHTRYEQIHLVPAEPPEACGELSNGFFIQDQIALVERGGCSFLSKTRVVQEHGGRAVIISDNAVDNDSFYVEMIQDSTQRTADIPALFLLGRDGYMIRRSLEQHGLPWAIISIPVNVTSIPTFELLQPPWTFW [PRADC1] | -2.33 | -2.03 | 53.8 | 52.7
MSEKSVEAAAELSAKDLKEKKEKVEEKASRKERKKEVVEEEENGAEEEEEETAEDGEEEDEGEEEDEEEEEEDDEGPALKRAAEEEDEADPKRQKTENGASA [PTMS] | -1.16 | -2.62 | 55.5 | 51.9
MLTTLLPILLLSGWAFCSQDASDGLQRLHMLQISYFRDPYHVWYQGNASLGGHLTHVLEGPDTNTTIIQLQPLQEPESWARTQSGLQSYLLQFHGLVRLVHQERTLAFPLTIRCFLGCELPPEGSRAHVFFEVAVNGSSFVSFRPERALWQADTQVTSGVVTFTLQQLNAYNRTRYELREFLEDTCVQYVQKHISAENTKGSQTSRSYTSLVLGVLVGSFIIAGVAVGIFLCTGGRRC [PROCR] | 1.63 | 0.816 | 59.1 | 57.1
MAVAAAAAAGPVFWRRLLGLLPGRPGLAALLGRLSDRLGRNRDRQRRRSPWLLLAPLLSPAVPQVTSPPCCLCPEGVHRFQWIRNLVPEFGVSSSHVRVLSSPAEFFELMKGQIRVAKRRVVMASLYLGTGPLEQELVDCLESTLEKSLQAKFPSNLKVSILLDFTRGSRGRKNSRTMLLPLLRRFPEQVRVSLFHTPHLRGLLRLLIPERFNETIGLQHIKVYLFDNSVILSGANLSDSYFTNRQDRYVFLQDCAEIADFFTELVDAVGDVSLQLQGDDTVQVVDGMVHPYKGDRAEYCKAANKRVMDVINSARTRQQMLHAQTFHSNSLLTQEDAAAAGDRRPAPDTWIYPLIQMKPFEIQIDEIVTETLLTEAERGAKVYLTTGYFNLTQAYMDLVLGTRAEYQILLASPEVNGFFGAKGVAGAIPAAYVHIERQFFSEVCSLGQQERVQLQEYWRRGWTFHAKGLWLYLAGSSLPCLTLIGSPNFGYRSVHRDLEAQIAIVTENQALQQQLHQEQEQLYLRSGVVSSATFEQPSRQVKLWVKMVTPLIKNFF [PGS1] | 0.0742 | -0.577 | 53.2 | 53.2
MSRLLPLLRSRTARSLRPGPAAAAAPRPPSWCCCGRGLLALAPPGGLPGGPRRLGTHPKKEPMEALNTAQGARDFIYSLHSTERSCLLKELHRFESIAIAQEKLEAPPPTPGQLRYVFIHNAIPFIGFGFLDNAIMIVAGTHIEMSIGIILGISTMAAAALGNLVSDLAGLGLAGYVEALASRLGLSIPDLTPKQVDMWQTRLSTHLGKAVGVTIGCILGMFPLIFFGGGEEDEKLETKS [TMEM65] | 0.563 | 0.332 | 55.5 | 55.9
MKSVIYHALSQKEANDSDVQPSGAQRAEAFVRAFLKRSTPRMSPQAREDQLQRKAVVLEYFTRHKRKEKKKKAKGLSARQRRELRLFDIKPEQQRYSLFLPLHELWKQYIRDLCSGLKPDTQPQMIQAKLLKADLHGAIISVTKSKCPSYVGITGILLQETKHIFKIITKEDRLKVIPKLNCVFTVETDGFISYIYGSKFQLRSSERSAKKFKAKGTIDL [POP4] | -1.07 | -2.15 | 52.4 | –
MSEGDSVGESVHGKPSVVYRFFTRLGQIYQSWLDKSTPYTAVRWVVTLGLSFVYMIRVYLLQGWYIVTYALGIYHLNLFIAFLSPKVDPSLMEDSDDGPSLPTKQNEEFRPFIRRLPEFKFWHAATKGILVAMVCTFFDAFNVPVFWPILVMYFIMLFCITMKRQIKHMIKYRYIPFTHGKRRYRGKEDAGKAFAS [RER1] | -0.257 | -1.81 | 55.1 | 55.5
MAMWNRPCQRLPQQPLVAEPTAEGEPHLPTGRELTEANRFAYAALCGISLSQLFPEPEHSSFCTEFMAGLVQWLELSEAVLPTMTAFASGLGGEGADVFVQILLKDPILKDDPTVITQDLLSFSLKDGHYDARARVLVCHMTSLLQVPLEELDVLEEMFLESLKEIKEEESEMAEASRKKKENRRKWKRYLLIGLATVGGGTVIGVTGGLAAPLVAAGAATIIGSAGAAALGSAAGIAIMTSLFGAAGAGLTGYKMKKRVGAIEEFTFLPLTEGRQLHITIAVTGWLASGKYRTFSAPWAALAHSREQYCLAWEAKYLMELGNALETILSGLANMVAQEALKYTVLSGIVAALTWPASLLSVANVIDNPWGVCLHRSAEVGKHLAHILLSRQQGRRPVTLIGFSLGARVIYFCLQEMAQEKDCQGIIEDVILLGAPVEGEAKHWEPFRKVVSGRIINGYCRGDWLLSFVYRTSSVQLRVAGLQPVLLQDRRVENVDLTSVVSGHLDYAKQMDAILKAVGIRTKPGWDEKGLLLAPGCLPSEEPRQAAAAASSGETPHQVGQTQGPISGDTSKLAMSTDPSQAQVPVGLDQSEGASLPAAASPERPPICSHGMDPNPLGCPDCACKTQGPSTGLD [TMCO4] | -0.364 | 0.512 | – | 53.7
MAARRRRSTGGGRARALNESKRVNNGNTAPEDSSPAKKTRRCQRQESKKMPVAGGKANKDRTEDKQDGMPGRSWASKRVSESVKALLLKGKAPVDPECTAKVGKAHVYCEGNDVYDVMLNQTNLQFNNNKYYLIQLLEDDAQRNFSVWMRWGRVGKMGQHSLVACSGNLNKAKEIFQKKFLDKTKNNWEDREKFEKVPGKYDMLQMDYATNTQDEEETKKEESLKSPLKPESQLDLRVQELIKLICNVQAMEEMMMEMKYNTKKAPLGKLTVAQIKAGYQSLKKIEDCIRAGQHGRALMEACNEFYTRIPHDFGLRTPPLIRTQKELSEKIQLLEALGDIEIAIKLVKTELQSPEHPLDQHYRNLHCALRPLDHESYEFKVISQYLQSTHAPTHSDYTMTLLDLFEVEKDGEKEAFREDLHNRMLLWHGSRMSNWVGILSHGLRIAPPEAPITGYMFGKGIYFADMSSKSANYCFASRLKNTGLLLLSEVALGQCNELLEANPKAEGLLQGKHSTKGLGKMAPSSAHFVTLNGSTVPLGPASDTGILNPDGYTLNYNEYIVYNPNQVRMRYLLKVQFNFLQLW [PARP2] | 1.04 | 1.69 | 47.1 | 50.5
MPSPQLLVLFGSQTGTAQDVSERLGREARRRRLGCRVQALDSYPVVNLINEPLVIFVCATTGQGDPPDNMKNFWRFIFRKNLPSTALCQMDFAVLGLGDSSYAKFNFVAKKLHRRLLQLGGSALLPVCLGDDQHELGPDAAVDPWLRDLWDRVLGLYPPPPGLTEIPPGVPLPSKFTLLFLQEAPSTGSEGQRVAHPGSQEPPSESKPFLAPMISNQRVTGPSHFQDVRLIEFDILGSGISFAAGDVVLIQPSNSAAHVQRFCQVLGLDPDQLFMLQPREPDVSSPTRLPQPCSMRHLVSHYLDIASVPRRSFFELLACLSLHELEREKLLEFSSAQGQEELFEYCNRPRRTILEVLCDFPHTAAAIPPDYLLDLIPVIRPRAFSIASSLLTHPSRLQILVAVVQFQTRLKEPRRGLCSSWLASLDPGQGPVRVPLWVRPGSLAFPETPDTPVIMVGPGTGVAPFRAAIQERVAQGQTGNFLFFGCRWRDQDFYWEAEWQELEKRDCLTLIPAFSREQEQKVYVQHRLRELGSLVWELLDRQGAYFYLAGNAKSMPADVSEALMSIFQEEGGLCSPDAAAYLARLQQTRRFQTETWA [NDOR1] | -0.788 | -0.432 | 52.6 | –
MISLTDTQKIGMGLTGFGVFFLFFGMILFFDKALLAIGNVLFVAGLAFVIGLERTFRFFFQKHKMKATGFFLGGVFVVLIGWPLIGMIFEIYGFFLLFRGFFPVVVGFIRRVPVLGSLLNLPGIRSFVDKVGESNNMV [GOLT1B] | -3.12 | -4.7 | 59 | 54.6

From the supplement of paper PMC5998384
